# Source: the supplement of paper PMC12455559
# ± gives the standard deviation of the averaged measurements.
# Columns and labels:
# [1] = melting temperature (DSF); higher = more thermostable
# How it was run: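 Values are melting temperatures from differential scanning fluorimetry. Candidate enzymes were expressed in E. coli C41(DE3), purified on nickel beads and freed by SUMO protease cleavage. In sealed PCR plates on a Bio-Rad CFX96, 45 μL enzyme (0 to 0.3 mg/mL) was combined with 5 μL 5X Sypro Orange. Fluorescence was recorded from 25 °C for 250 cycles, rising 0.3 °C per cycle at a ramp of 0.3 °C/s.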
# [2] = purified protein yield per well (BCA); higher = higher soluble expression
# How it was run: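 Values under 25 ug (0.1 mg/mL) are below the detection threshold. Purified protein yield per well was quantified with the Pierce Rapid Gold BCA kit after candidate enzymes, expressed in E. coli C41(DE3), were captured on Ni-charged magnetic beads and released by SUMO protease on an OT-2 robot. Cultures were 2 mL autoinduction with 100 µg/mL kanamycin, run 2 h at 37 °C and then 40 h at 18 °C.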
# [3] = PET hydrolysis, aromatic products released after 48 h (umol product/mg enzyme); higher = more PET depolymerization activity
# How it was run: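 Sealed plates containing 3.5 mg PET (amorphous film or crystalline powder), 450 μL buffer and 5 μg (50 μL) tagless candidate enzyme were held 48 h at 40 or 60 °C with no shaking. Supernatants were then read at 260 and 280 nm against buffer blanks. The aromatic product detected this way, per mg enzyme, defines PET hydrolysis activity.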
# [4] = substrate: aFilm, 40 °C, pH 4.5
# [5] = substrate: aFilm, 40 °C, pH 5.5
# [6] = substrate: aFilm, 40 °C, pH 6.5
# [7] = substrate: aFilm, 40 °C, pH 7.5
# [8] = substrate: aFilm, 60 °C, pH 4.5
# [9] = substrate: aFilm, 60 °C, pH 5.5
# [10] = substrate: aFilm, 60 °C, pH 6.5
# [11] = substrate: aFilm, 60 °C, pH 7.5
# [12] = substrate: cryPow, 40 °C, pH 4.5
# [13] = substrate: cryPow, 40 °C, pH 5.5
# [14] = substrate: cryPow, 40 °C, pH 6.5
# [15] = substrate: cryPow, 40 °C, pH 7.5
# [16] = substrate: cryPow, 60 °C, pH 4.5
# [17] = substrate: cryPow, 60 °C, pH 5.5
# [18] = substrate: cryPow, 60 °C, pH 6.5
# [19] = substrate: cryPow, 60 °C, pH 7.5
Sequence,melting temperature [1] [C],purified protein yield per well [2] [µg],"PET hydrolysis [3, 4]","PET hydrolysis [3, 5]","PET hydrolysis [3, 6]","PET hydrolysis [3, 7]","PET hydrolysis [3, 8]","PET hydrolysis [3, 9]","PET hydrolysis [3, 10]","PET hydrolysis [3, 11]","PET hydrolysis [3, 12]","PET hydrolysis [3, 13]","PET hydrolysis [3, 14]","PET hydrolysis [3, 15]","PET hydrolysis [3, 16]","PET hydrolysis [3, 17]","PET hydrolysis [3, 18]","PET hydrolysis [3, 19]","PET hydrolysis ([3]; substrate: cryPow, 40 °C, pH 8.5)","PET hydrolysis ([3]; substrate: cryPow, 60 °C, pH 8.5)"
ADLLSQGRPVTASSTENASTPASAAVDGNTGTRWSSAFSDPQWLTVDLGTTATISRVVLRWETAYARRFQIQTSDDGTAWTTIHSATAGTGGVQTLDVTGSGRYVRVHGTQRGTAYGYSLWEFQVYGTRGTTPGEGIPDPSTASLEAAAGPLTTATYTVPDPSGYGSGTVTYPTAGGSYPGVVLMPGYQGTQQNLQWLAPRLASWGFVVLNVGTNTLTDDPASRGRQITAAGTQLLALGAATGNPLSGKVNGTLGAVGHSMGGGGVMAALRDDARFRAGVPTAPYYPNGNFSGVTDPTFFLTCQSDPVAHGNSYALPWYNSMSQSEKLYIEVPGDHLCPMTGSGDKAKQGKWIVSFLSHWLRADTRFTPFLCGPAREADKNDPSLVTRWMDTCPL [TEP036],51.4,230,< 3,< 3,< 3,< 3,< 3,< 3,< 3,< 3,< 3,< 3,< 3,< 3,< 3,< 3,< 3,< 3,–,–
DEIGQAPTSSNITGNGSFSVSTYNISSLVTGFGGGVAYYPSTAGRYPVVAVSPGFTARWSSISWIGPRLASWGFVVVGIETNSVYDQPASRGSQLLAALNWAVNSAPSAITSRADGSRRGVAGHSMGGGGTLEALAADTTGNVKAGVPLAPWNSDKTWNNVNEPVQIIGGESDTVAGVSSHSIPFYNSLGGSKSYVELNGASHFFPQTTNATTSRALVSWFKRWLNQDARFTPFTCGYGGTAVSDFRTNAC [ESM177],54.4,71.4,–,–,–,–,–,–,–,–,< 3,< 3,13,42,< 3,< 3,< 3,7,–,–
ADNPYQRGPDPTRTSVTAVNGPFANTSVSVPTGYGFNGGRIYYPTDTSQGTFGAIAISPGYTALFSAELAWMGPWLASHGFVVIGIETNSRNDFDTARGTQLLAALDYLTQQSPVRDRVDPNRLAVSGHSMGGGGALSAAMRRSSLKAVVGITPYSPSSNLANDRVPTMIISGQADTVVTPSYALGLYNSIPTTTKSVYLEVAGGDHGFMVGRSNPVMVRTMLPFVKMFIDNDARYSQFLCPLLDNSGVVTYRSTCPLLPTTPPTGTPTPTPTNSPTTPPPGSASGIVGAQSGRCIDVPNASRSNGTRVQLYDCNRQSNQSWTYTANKQLRVYGDMCLDAAGSGNGAAVQIYSCHNQTNQQWNVNSNGTITGVQSGRCLDVWSTSNGAQVQLYDCHGQANQQFRLAPLA [ESM059],65.8,311,< 3,2 ± 2.8,1.5 ± 2.1,< 3,< 3,< 3,< 3,< 3,10,21 ± 1.4,26,21.5 ± 2.1,< 3,5,4,2 ± 2.8,–,–
ADSPYQRGPDPTLASVAATRGPFATTQATVPAGNGFNGGYVYYPTDTSQGTWGAVAIVPGYSALFANEEAWMGPWLASFGFVVIGIETNSRTDGADARATQLLAALDYLTRTSPIRNRVDPNRLSVMGHSAGGAGTLLAALRRPTLKAAVGLAPGTPGNNLNMSTTQVPTMLLSGQNDGTVTPSYVQGIYNTLPAGVEHAWAELAGNDHLSFTRSNPTEMRLLIPWLKTFLDNDTRYTQFLCPLADSTGVSRYSATCPLVPPDGPTPPPTTAPPTTTPPTSTPPTTSAPTTPPPSGAACTATYRTVNSWSGGFQGEVTVTAGTAAVNGWTVTWNLSNGQSISQVWNGTLSTSGSTATVRNVSYNGSLAPGGTTTFGFLGSGTPANASPTCASP [ESM014],59.2,85.8,–,–,–,–,–,–,–,–,< 3,< 3,< 3,< 3,< 3,< 3,< 3,< 3,–,–
ADNPYQRGPDPTRASVAAENGPFANTSVSAPTGYGFNGGRIYYPTDTSQGTFGAIAISPGYTALFSAELAWMGPWLASHGFVVIGIETNSRNDFDTARGTQLLAALDYLTQQSPVRDRIDPNRLAVSGHSMGGGGALSAAMRRSSLKAVVGITPYSPSSNLANVQVPAMVISGQADTVVTPSYALGLYNSLPASTESAYLEVAGGDHGFMVGRSNPVLIRTMLPFVKMFVDNDARYSQFLCPLLDNSGVVTYRSTCPLLPPPTATPTPTGTPTPTPTPTVSPTTPPNSANRIVGVQSGRCIDVPNASRDNGTRVQLYDCHGQSNQSWTYTASKQLRVYGDMCLDAGGSGNGAGIQIYSCHSQTNQQWNVNSNGTISGVQSGRCLDVWSTSNGAQVQLYDCHGQTNQQFNLVPLT [TEP167],57.1,180,–,–,–,–,–,–,–,–,< 3,< 3,< 3,< 3,< 3,< 3,< 3,< 3,–,–
ADNPYQRGPDPTRTSVTAVNGPFANTSVSVPTGYGFNGGRIYYPTDTSQGTFGAIAISPGYTALFSAELAWMGPWLASHGFVVIGIETNSRNDFDTARGTQLLAALDYLTQQSPVRDRVDPNRLAVAGHSMGGGGALSAATRRPSLKAVVGIAPYSPSSNLANDRVPTMIFAGQADTVVTPSYATGLYNSLPATTESVYVEVAGADHGFMVGRSNPVMVRTMLPFVKMFIDNDTRYSQFLCPLLDSSGVVTYRSTCPLLPSTPTPTDPPTPTDPPTVPPGSANEIVGTQSGRCVDVPNASRTNGTRVQLYGCNKQTNQAWTYTSSKQLQVYGNMCLDAAGTGNGAAVQIYSCHNQTNQQWNVNSNGTISNVQSGRCLDAWSTANGAQIQLYDCHGQTNQQFRLAALAG [ESM069],63.4,213,< 3,4,< 3,< 3,< 3,< 3,< 3,< 3,10.5 ± 2.1,29 ± 2.8,42,17 ± 1.4,< 3,4.5 ± 0.71,4,< 3,–,–
ADNPYQRGPDPTQSSVSASRGTFATAQVGVPAGNGFGGGVIYHPTDTSQGTFGAVAIVPGYTATWAAEGAWMGHWLASFGFVVIGIDTNNRNDWDTARGTQLLAALDYLTQRSSVRDRVDPSRTAVMGHSMGGGGAMYAALQRPSLKTAVGLAPFSPSQNLTTTRVPTMLLSGQNDTTTTPASIVNLYNGIPSSVEKAYLELTGAGHGFPTSNNSTMMRNVIPWLKIFVDSDTRYTQFLCPLSDSNGIRTYQNTCPLVPSPVPTTTSTTSSTSTTTTSTTTTTTTSVPVGACSATYRTTNAWSGGYQGEVTVAAGDSAVNGWTVRWTLDSGQTISQVWNGTLSATGSAVSVRNASYNGSLRPGTSTTFGFIAGGAPSTPVLSCTSP [DP072],58,89,–,–,–,–,–,–,–,–,–,< 3,8,24,–,< 3,< 3,< 3,32,3
AANPYERGPAPTAASIAATTGPFAVASVSVPRGNGFGGGVIYYPTSTSQGTFGGVAISPGLNGTWAGIAWLGPRLASQGFVIFGIETNNLNDSPASRGTQLLAALDFLTRSSSVRTRVDASRLAVAGHSMGGGGALSAALQRPSLQAAIGNAPHLPSGSLATDRVPTLIYAMQNDTLVTPSRLTSLYNSMPATTERAYIEVAGAGHNYIGQPSTTLARTMIPWLKIFVDNDARYSQFLCPLSNQSGISQYRNSCPLISTTTLSTGVDSTSGLAVR [ESM157],61,313,< 3,< 3,< 3,< 3,< 3,< 3,< 3,< 3,< 3,17.5 ± 2.1,50,69.5 ± 3.5,< 3,3,7.5 ± 0.71,14.5 ± 0.71,–,–
ADNPYQRGPDPTRTSVATERGPFANTSVSVPSGYGFNGGRIYYPTDTSQGTFGAIAISPGYTALFSAELAWMGPWLASHGFVVIGIETNSRNDFDTARGTQLLAALDYLTQQSPVRDRIDPNRLAVSGHSMGGGGALSAAMRRSSLKAVVGIAPYSPSSNLANDRVPTMIFSGQADTVVTPSYAMGLYNSIPAGTKSAYLEVAGGDHGFMVGRSNPVLIRTMLPFLKIFIDNDARYSQFLCPLLDNSGVVTYRSTCPFLPTTPTTPPPTG [ESM065],67.9,250,–,–,–,–,–,–,–,–,21,29,7,< 3,< 3,4,< 3,< 3,–,–
ADNPYQRGPDPTPQSISAPTGPFATASVTVPRQGNFGGGVIYYPTDTSQGTFGAVAISPGLNGTWPGIAWLGPRLSSQGFVVFGIDTLGLSDSTASRGSQLLAALDYLTQTSSVRTRVDSSRLAVAGHSMGGGGAFEAALRRPALKAAIPNAPFFPGSASNVRVPTLITAMQNDSLVGQNRNAYNGIPAGVEKAYVELAGAGHNQIGQPTTAIARNWIPWLKIFVDSDARYHQFLCPTTDMSGLSQYLNTCPLISTTPPTSSPSAQPTTPGPTGPPPGGACAATYRTVNSWSDGYQGEMTVQAGSSAINGWTVRWTMSGGQTISQVWNGTLVAGSGAAAVRNVAYNGSLAAGASTTFGFISSGTPSATSITCGSP [ESM081],68.2,182,–,–,–,–,–,–,–,–,4,17,45,82,–,–,–,–,–,–
ASPYQRGPNPTAASIAATTGPFAIASITVPRGNGFGGGVIYYPTSTSQGTFGGIAISPGLNGTWSGISWLGPRLASQGFVVFGIETNNLNDSPTSRGTQLLAALDYLTQRSSVRSRLDANRLAVMGHSMGGGGALDAALRRPTLKATIGNAPHLPSGSLANDRVPTLIYAMQNDTLVTPARLTSLYNTIPAATERAYIEVTGAGHNYIGQPSTTLARTMIPWLKIFIDSDTRYAPFLCPLNDRSGIRQYRNSCPLI [ESM128],66.4,407,< 3,< 3,< 3,6,< 3,< 3,< 3,< 3,< 3,43,75 ± 1.4,110 ± 4.2,< 3,4.5 ± 0.71,18.5 ± 3.5,41.5 ± 6.4,–,–
